Results on one substance are retold here after patent US20050084449A1.

Test [1] addresses TIM-1 antigen, cell membrane-bound (on ACHN, CAKI-2, CAKI-1 renal cancer cells and polarized/activated human CD4+ T cells) (human) (UniProt Q96D42). Kind of test: FACS on activated T cells, Day 4, +MMPI.
For test [2] the target is unchanged. Briefly: FACS on activated T cells, Day 0, -MMPI.
Test [3] shares this target. Kind of test: FACS on activated T cells, Day 1, +MMPI.
Test [4] has the same target. Briefly: FACS on activated T cells, Day 2, +MMPI.
The target is the same in test [5]. Briefly: FACS on activated T cells, Day 2, -MMPI.
For test [6] the target is unchanged. Kind of test: FACS on activated T cells, Day 1, -MMPI.
Test [7] has the same target. Kind of test: FACS on activated T cells, Day 0, +MMPI.
Test [8] has the same target. Briefly: FACS on activated T cells, Day 5, -MMPI.
The target is the same in test [9]. Briefly: FACS on activated T cells, Day 5, +MMPI.
The target is the same in test [10]. Kind of test: FACS on activated T cells, Day 4, -MMPI.

Sequence of TIM-1 antigen, cell membrane-bound (on ACHN, CAKI-2, CAKI-1 renal cancer cells and polarized/activated human CD4+ T cells) (human) (Q96D42 21-364): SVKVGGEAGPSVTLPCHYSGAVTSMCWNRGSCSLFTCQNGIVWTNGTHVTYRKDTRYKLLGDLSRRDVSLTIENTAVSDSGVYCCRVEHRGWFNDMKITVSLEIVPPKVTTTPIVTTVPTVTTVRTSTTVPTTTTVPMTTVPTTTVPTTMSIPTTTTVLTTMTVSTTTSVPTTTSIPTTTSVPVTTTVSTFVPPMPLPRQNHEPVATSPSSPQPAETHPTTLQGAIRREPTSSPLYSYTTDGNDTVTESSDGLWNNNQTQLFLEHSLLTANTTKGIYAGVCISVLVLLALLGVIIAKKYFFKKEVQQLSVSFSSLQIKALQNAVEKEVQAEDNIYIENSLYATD

Regarding “isotype matched control mAb PK16.3 (antibody)”, the Percent of activated T cells that express TIM-1 (percent stained) stood at 2% in [1]; 1% in [2]; 2% in test [3]; 6% in [4]; 3% in [5]; 3% in test [6]. Also, the Percent of activated T cells that express TIM-1 (percent stained) in [7] is 1%; in [8], 1%; in test [9] it was 2%; in test [10] it was 1%.
